Biological target: angiogenin (UniProt P03950)
Assay: phage ELISA; angiogenin coated at 4 ug/mL, negative control phage, anti-g8p antibody and HRP secondary

angiogenin, sequence (P03950 25-147 limits assumed): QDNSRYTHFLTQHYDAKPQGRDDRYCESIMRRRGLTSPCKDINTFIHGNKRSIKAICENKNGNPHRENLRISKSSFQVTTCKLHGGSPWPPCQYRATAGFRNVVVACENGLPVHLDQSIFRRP

With wild type phage the OD value (450 nm) was 0.191 OD.

— patent publication US20200384066A1
